Legend:
[1] = biological target: FLAG-tagged VEGF^121 (WT), a soluble splicing variant of VEGFA; experiment: non-reducing SDS-PAGE and FLAG immunoblot; FLAG-VEGF^121 immunopurified with FLAG-M1 antibody from conditioned media of transfected WT HeLa (and WT MDAMB231^m) cells; reducing against non-reducing immunoblot; disulfide-bonded homodimer against monomer
[2] = biological target: FLAG-tagged VEGF^121 (WT), a soluble splicing variant of VEGFA; experiment: non-reducing SDS-PAGE and FLAG immunoblot; FLAG-VEGF^121 immunopurified with FLAG-M1 antibody from conditioned media of transfected ERO1 KO HeLa (and ERO1 KO MDAMB231^m) cells; reducing against non-reducing immunoblot; disulfide-bonded homodimer against monomer

## FLAG-tagged VEGF^121 (WT), a soluble splicing variant of VEGFA (ligand)
[1]
  stoichiometry N: 2
[2]
  monomer as percent of the total secreted VEGF^121: 80%

From article PMC7932925
